Results published in the DeepSol protein solubility set.

Test: soluble on expression in E. coli; label from the status in PepcDB or PDB records

| Sequence | soluble on expression in E. coli |
| --- | --- |
| MAQPSTTYKFELNLTDLDRNVYESVKQTIARHPSETEERMAVRLLAYALWYNENLSFGRGLSDVDEPALWEKSLDDRVLHWIEVGQPDADRLTWCSRRTERTSLLAYGSLRVWEGKVVSAVKNLKNLSIAAVPQEVLETLATDMPRSIKWDVMISEGTVFVTDDRGQHEVQLQWLLGERG | not soluble |
| MAHHHHHHMAAMLRLTFALRLSSKQLSHGPLATHTRKQSFRQSKTALQVSRLRSQTQRANFNLQQELNRDFGARQYAFAQGRRSMQRAAEDLMYDRAYRAERHRGRAGEVYRTTKDRAAEVATARQLLQMQESTRRLMKKGRTQRVEAFRAQKQWNR | not soluble |
| MGRNKEFDTALVLHRAIEVFGEYGYEGTSLQDLLSHLGIARQSLYDTYGTKRDLFLSAVKSYLEGKNAAVMERLEAPGSVKEAIRDIFQEGVNALRDPERAKACYIINSAIEQIPHDPELARYFERQSKQLEDAFYHGLLRAKDQGELNGEDTDISALARYLNQSRLSLTFIAKVTADMDRLQDHVDVSLSVLD | soluble |
| MGSDKIHHHHHHMSVRCASLSAMELTQATVNDLLAQLGPGDSYMYLPSDLDPQDLTDLLDGRYGAARTLVLDGFTDPTVDESRGAALLVPFEDRAVKIRAWAYGDQWVGTGTARDAKGAERPVLVVAHREVPEPLAVAPDEDEDVDWMERLIRITGWTRPAQRPDVDWAEVESRLGTALPSDYKRMVETFGEGAFDGYLDLNQEPWTDLRRDGLLIWAGTEHEDLYCWRADGDDPDRWPVVVRSFDNKDVPFDCQAAKFVCRILIDPHHPFTMARYFDTHWFMNYRESG | not soluble |
| MKQGLQLRLSQQLAMTPQLQQAIRLLQLSTLELQQELQQALENNPLLEQTDLHDEIDTQQPQDNDPLDTADALEQKEMPEELPLDASWDEIYTAGTPSGPSGDYIDDELPVYQGETTQSLQDYLMWQVELTPFSDTDRAIATSIVDAVDDTGYLTVSLDEIRESMGDVEVDLDEVEAVLKRIQRFDPVGVAAKDLRDCLLIQLSQFDKSTPWLEEARLIICDHLDLLANHDFRTLMRVTRLKEEVLKEAVNLIQSLDPRPGQSIQTGEPEYVIPDVLVRKHNGRWTVELNSDSIPRLQINQHYAAMCNSARNDADSQFIRSNLQDAKWLIKSLESRNDTLLRVSRCIVEQQQAFFEQGEEYMKPMVLADIAQAVEMHESTISRVTTQKYLHSPRGIFELKYFFSSHVNTEGGGEASSTAIRALVKKLIAAENPAKPLSDSKLTSLLSEQGIMVARRTVAKYRESLSIPPSNQRKQLV | not soluble |
| MAHHHHHHMASVPFTEEDLHELYTWVDEIPISRQKRNIARDFADGCSVAEILKFFFPKLVDLHNYVPAMSHAKKLDNWNTLNAKVLRKLYFEVPPEEVEDIVAAVPGAIERFLRALRVKVAQIKARRDEMLRMGEIQAHVNAHHVDPSPSQPQPREGGHVRDGGASAATAHRGSGRPSSPAAPAGPVASSRGSSSAGPQAPPRQTQPQRQPTPPLVNEAASLTQALREKDYTIQELRETVAILSEKIVKLEELVRVKDEKLNQYRQKVGRVPA | soluble |
| TGKKAILRLSKRAMHLEWKLVKEIIFLGTSGFVMSVTNGFVQIVCNATLQRYGGDIYVGIMTVINSVREIVTMPVTGLTAASQPVIGYNYGAGCYQRVKSA | not soluble |
| QTVAIKMGADNGMLAFEPSTIEIQAGDTVQWVNNKLAPHNVVVEGQPELSHKDLAFSPGETFEATFSEPGTYTYYCEPHRGAGMVGKIVVQ | soluble |
| RIAISNSNRTRSVPSLTTIWSISPTPNCSIYETQDANLFLCLTKNGAHVLGTITIKGLKGALREMHDNALSLKLPFDNQGNLLNCALESSTWRYQETNAVASNALTFMPNSTVYPRNKTAHPGNMLIQISPNITFSVVYNEINSGYAFTFKWSAEPGKPFHPPTAVFCYITEQGSHHHHHH | soluble |
| NECVSKGFGCLPQSDCPQEARLSYGGCSTVCCDLSKLTGCKGKGGECNPLDRQCKELQAESASCGKGQKCCVWLH | soluble |
| MAWTSTLPAHLLNLIKNSKYVHVATCSKDCIPSVALMNYIYVPGEKLFGQTDNKNDYIIFVSPQDTQKFYNIKENPKVALLFHDWIIANNLSVGKESISGTPTPTSIPHEEQRQSELLNLLQELNQAELNQMSASIGGETEIVNPESEESKYYKDLILKANPDAKAFIFEKNTAVVKVRIDNARVSNNENRTMFLSKGKS | soluble |
| MGSDKIHHHHHHVVTPEDSPRYPYGNCLYVEDDIPAVLDLGAGGRAFQEIPCEKVQLALISHSHFDHLHGDSFFPRAGLYAGKEESKTYSDENEYLKFHGYELWAEMMPGIKRVAFSEVKPLPDDVPVKPGFRYIPLAGIFKDMERFQLGKTEITAIHLPGHTTGHYGFWIEKEGILFSGDMDLVVAGPWYSSNSADIGQLVSSVQRIREINPGLIVPSHRRLIFDKIEKRLDQYIGVVFKRQERILDLLKEAHTIDELLEYQMVFHGRRDIYLLFWEKMTLRNHIRFLLWEGMVEEVEKGRYKRC | not soluble |
| IFEDEEDQITKVDSLKKEGNNFFANGEFEKANEKYQEAIASCPPTSTEVQSILLSNSAAALIKLRKWESAVEAASKSIEIGATNEKALERRAFAYSNMSEKYENSIEDYKQLQESLPKRRVELDRKIAEINEKINNRNEAMKADVMEKLKGFGNFCLSPFGLSTDSFEMVPNGNGGFSVQMKGATNKQEGAS | not soluble |
| KKMREEGVHEGCMEQIYRMFSQRLYKEDGSAAEVDDMNRLRLDDWELREDIQQHCRELWPQITTENLKELTDYVEYKEEFLKLFGFGVEGVDYEADVNPAVETDFIQI | not soluble |
| MGSDKIHHHHHHMKFSDIISKLEVTNYSLTQNPNNDPEITGMAAIDEATSGTLSYIEGAKFASFIAKTNASALILPQNEAMQAQAQERGIVWMATPEPRLLFAKAIALFYQPYTPTPEIHPTAVIHPTAKIGNDVYIGPHVVIQPGVEIGNGVIIHPNVVIYPGVKIGDRTILHANCTIEERSQIGADCVIHSGAVIGGEGFGFVPTRTGWYKMEQSGYVVLEDRVDIGCNTTIDRPSVGETRVGYDTKIDNLVQIAHGCQIGAGCAIAAQTGMAGGVKLGNRVILAGQVGIANQAKMGDGSTASAQTGILHDVKPGEVVSGTPAIPHKMYLKIAALYSRLPDMYQAFRQSQRQLEEEGKR | not soluble |
| MGSDKIHHHHHHMAATLEAVPSTKTADKKTEISEADAARELVRMAKEQGLSLTGPDGLLKQLTKTVIETALDEEMTEHLGYEKHDSAGKQTANSRNGVRPKTVLTETTGPVEVDVPRDRAGTFEPVIVKKRQRRLTGVDEMVLSLYAKGLTTGEISAHFAEIYGASVSKETVSRITDRVLEEMAAWQNRPLDEVYAAIFIDAIVVKVRDGQVANRPIYAAIGVTLEGEKDILGLWAGTGGEGAKFWMSVLTDIKNRGVKDTFFLVCDGLKGLPEVVTNVWPLATVQTCIIHLIRNTFRLASRQDWDALKRDVKPIYTAPNAEAARTALEELAERWGRKYGAIVRLWENAWEELIPFLDYDVEIRRVICSTNAIESLNARYRRAVKARGHLPTEQAALKCLYLVTRSLDPTGAGKTRWAVRWKPALNAFAITFSDRFPAAESY | not soluble |
| MGSDKIHHHHHHAGVVVPKYTPSTENPGGPGEEPGDGLIDPAEPLDRGFMHLKGRELKSLNSISITGLNDGEKVILSTLAGLAARVTGDQVYINEGGPSSVWLKQMQNKYGIPVNTYNALAPLVQHYVETGVIKGYIVYTPYSEGQSHSINVATSLCGLLRGIAVPESLVDKVKAMGVTTELMDVRSYDEKWLYENYKDQLDKSLAADMKPEIFHHLRDYITMTNAFAFYDYNARRDWSWRTSILKDLDKGAYCFGYYDLDEWGMVNNASQLGVSMLPTDQAANLATLSSIYDTTGLKQRPATKEVVTEENVHYVTFLVSDGDNIAFNLWGQQGYMDHDLHGQFPLGYTISPSLYDLAPAALRWYYENSKEGDYFVAGPSGSSYIFPSKMSDADLDDYLAKLNEYVDKSGLNICNILDQKIMDNPKVYNKYLAQPNIDAIFYTGYGEKGDGRIKFSDNGKPVIEQRSVLWEGIDGGSNRGEESTVISQINSRSANPHSADGYTFVFVHCWTKNQQSIKTVIDGLNDNVRVVPVDQFVQLVKQNLGPK | not soluble |
| MEFREQVLNLLAEVAENDIVKENPDVEIFEEGIIDSFQTVGLLLEIQNKLDIEVSIMDFDRDEWATPNKIVEALEELR | not soluble |
| MGSDKIHHHHHHMNFKQLNYFLVVAEEGQITSAAKRLFVGQPALSYQLKQLEEELGAKLFIRQPYGIELTEAGKKLRDYAGQILTLAQNVQTEITELDRGGWGRVKLGSVSSSIGELPSAKLTAFARQHPGVSFDIYEDNTFGILDKLQGNLLDLAIVRTPYNRVNLNFVDISDEPMTAVTCQDFFPGKGKVGLQDLAGQPLVIYRRFEDMFKEAFAEKGLTPNFVVKCDDSRTAIRWSDSGLGIALVPESIAKTYARGHIYPIDLAKWRTRLQLVWRKDRVVTPLMRQIIALYAK | not soluble |
| MASIKEELISAAESESQVMQIVQAALEGIDMDALTSMTPGLPQTVRQTAINSLLSSKKLAIQQAPGGVLRLKVNTSEQIAGTEEEQVIYSLIEESKTRGIWIKELREGSGLNQLQLRKTLKSLETKKLIKTIKAVGTTRKCYILFSIEPDMSLTGGTFYSDQQLDSELINTLISVCGSYAASRRKHAIDENPNNIQMQREASYIRPQEIAQFITEKRVLNVPLSLEDLERILEVAVLDGTIERRADGKIRACPPRSSISPLVSVPCAICPVVEDCRPGYVISPQSCDYMKNWLADL | not soluble |
| MIGIVMLSKIANIDAARQGLDLKVKVLSLNKKTIKNDRGETTYFYGIIGDDTGTVSFTAWSFPAAVKSGDVVEIKNCYSSLYNGKIRIYVDSRSQVVLKPDEYLEVKRTVELVKLRDLSLTTPYVSVIGRISGIKEKNYDSDRGSKIVYQGFIEDETAKVRISSFGKPLKDGEIVRVENARVSQYNGYMGISIGENSSIDNVQAQIEVGSRPIFIAEIKSPIGGVTITGFAVSVGQGSRIFTKCSICKKILEDGKCKDHPRAPVYLDIFGYFLLSDGTGSLTCYLNKDSFLPYIKMDTEEFKSQAFSMNPNMLIKKNILGKCLSVTGDLRLRDDKITMNASSIKEADADSVKDIEKTIQEEFQLEHHHHHH | not soluble |
| MTAATATANGNHSIEDPVVMKVQAASPIQETDFFENLYQMECFRTGEFYLKSGQMTPIYIDLRRIMSSPRVLRMAAQAMCEKIVASNLKFDYVVGVPYAALPLATLVSDILNVPMLMKRKEAKAYGTKQLIEGVYQPGGTVLLVEDVVTSGESIRETAEAIRNENLLVTDAIAVLDRQQGATANLAEDNLNFLSFLTMEKILDGLITKNEMTEERKHEIIAHLAKPF | soluble |
| MKINNGPVLCPHCGCLSAYYEIDRLAAIREKVNKEGGSAAWDSTLQAHKKKAFCLMCHKSIDEVVIGQSDAPESTK | not soluble |
| GSHMLITPRNIFRHELIGLSVRIARSVHRDIQGISGRVVDETRNTLRIEMDDGREITVPKGIAVFHFRTPQGELVEIDGRALVARPEERIKKKFRKP | soluble |
| AHHHHHHGSKGILPYVIFRSKKGTFALDAYLALRVEKVERIATLIRKAEVVKRAFDIPPNADLTLEELSEFLESSMEKIRKNAGESFDRRLKKIRRWNLARLFGIPTGHTRHIAEDEHLSREHRESLLALSILENVCRGGIEPIGYGVVDVEVKEGKVYINGKLDPVYTELIKIDMKAALALLEILSE | not soluble |
| MSNAYEEYMRQMVIPMRQELVRSGFEELTTEEAVTEFMENTSGTTLVVVNSVCGCAAGLARPSAGQAVVRAEKQPDHLVTVFAGQDKDATAKMREYFGEIPPSSPSMALLKGKEVVHFIHRHEIEGATMDEIITNLEQAFEKNC | soluble |
